To fix the notation:
B1: AT-N135Q-ΔR393: human antithrombin with deletion of position 393 and substitution at 135 by Glutamine (protein, listed as Homo sapiens)
chain: HGSPVDICTAKPRDIPMNPMCIYRSPEKKATEDEGSEQKIPEATNRRVWELSKANSRFATTFYQHLADSKNDNDNIFLSPLSISTAFAMTKLGACNDTLQQLMEVFKFDTISEKTSDQIHFFFAKLNCRLYRKAQKSSKLVSANRLFGDKSLTFNETYQDISELVYGAKLQPLDFKENAEQSRAAINKWVSNKTEGRITDVIPSEAINELTVLVLVNTIYFKGLWKSKFSPENTRKELFYKADGESCSASMMYQEGKFRYRRVAEGTQVLELPFKGDDITMVLILPKPEKSLAKVEKELTPEVLQEWLDELEEMMLVVHMPRFRIEDGFSLKEQLQDMGLVDLFSPEKSKLPGIVAEGRDDLYVSDAFHKAFLEVNEEGSEAAASTAVVIAGSLNPNRVTFKANRPFLVFIREVPLNTIIFMGRVANPCVK
B2: AT-N135Q-ΔS394: human antithrombin with deletion of position 394 and substitution at 135 by Glutamine (protein, listed as Homo sapiens)
chain: HGSPVDICTAKPRDIPMNPMCIYRSPEKKATEDEGSEQKIPEATNRRVWELSKANSRFATTFYQHLADSKNDNDNIFLSPLSISTAFAMTKLGACNDTLQQLMEVFKFDTISEKTSDQIHFFFAKLNCRLYRKAQKSSKLVSANRLFGDKSLTFNETYQDISELVYGAKLQPLDFKENAEQSRAAINKWVSNKTEGRITDVIPSEAINELTVLVLVNTIYFKGLWKSKFSPENTRKELFYKADGESCSASMMYQEGKFRYRRVAEGTQVLELPFKGDDITMVLILPKPEKSLAKVEKELTPEVLQEWLDELEEMMLVVHMPRFRIEDGFSLKEQLQDMGLVDLFSPEKSKLPGIVAEGRDDLYVSDAFHKAFLEVNEEGSEAAASTAVVIAGRLNPNRVTFKANRPFLVFIREVPLNTIIFMGRVANPCVK
B3: AT-N135Q-ΔR393-S394: human antithrombin with deletion of positions 393 and 394 and substitution at 135 by Glutamine (protein, listed as Homo sapiens)
chain: HGSPVDICTAKPRDIPMNPMCIYRSPEKKATEDEGSEQKIPEATNRRVWELSKANSRFATTFYQHLADSKNDNDNIFLSPLSISTAFAMTKLGACNDTLQQLMEVFKFDTISEKTSDQIHFFFAKLNCRLYRKAQKSSKLVSANRLFGDKSLTFNETYQDISELVYGAKLQPLDFKENAEQSRAAINKWVSNKTEGRITDVIPSEAINELTVLVLVNTIYFKGLWKSKFSPENTRKELFYKADGESCSASMMYQEGKFRYRRVAEGTQVLELPFKGDDITMVLILPKPEKSLAKVEKELTPEVLQEWLDELEEMMLVVHMPRFRIEDGFSLKEQLQDMGLVDLFSPEKSKLPGIVAEGRDDLYVSDAFHKAFLEVNEEGSEAAASTAVVIAGLNPNRVTFKANRPFLVFIREVPLNTIIFMGRVANPCVK
B4: AT-N135Q-Pro394: human antithrombin with Proline inserted between 393 and 394 and substitution at 135 by Glutamine (protein, listed as Homo sapiens)
chain: HGSPVDICTAKPRDIPMNPMCIYRSPEKKATEDEGSEQKIPEATNRRVWELSKANSRFATTFYQHLADSKNDNDNIFLSPLSISTAFAMTKLGACNDTLQQLMEVFKFDTISEKTSDQIHFFFAKLNCRLYRKAQKSSKLVSANRLFGDKSLTFNETYQDISELVYGAKLQPLDFKENAEQSRAAINKWVSNKTEGRITDVIPSEAINELTVLVLVNTIYFKGLWKSKFSPENTRKELFYKADGESCSASMMYQEGKFRYRRVAEGTQVLELPFKGDDITMVLILPKPEKSLAKVEKELTPEVLQEWLDELEEMMLVVHMPRFRIEDGFSLKEQLQDMGLVDLFSPEKSKLPGIVAEGRDDLYVSDAFHKAFLEVNEEGSEAAASTAVVIAGRPSLNPNRVTFKANRPFLVFIREVPLNTIIFMGRVANPCVK

The nature of the experiment: Heparin affinity column elution with NaCl gradient. Format: binding. As for the experimental part: Conditioned media are thawed, pooled, salt concentration adjusted to 0.4 M NaCl and then applied on an heparin immobilized column (Hitrap Heparin 5 ml or Heparin-sepharose CL6B 50 ml, GE Biological) equilibrated with 10 mM Tris, or with 20 mM phosphate buffer, 0.4 M NaCl and 0.1 mM EDTA, pH 7.4. The bound proteins are eluted in the same buffer with a gradient from 0.4 M to 2 M NaCl. The fractions eluted from 0.8 M NaCl and more contained only wild type antithrombin or mutated antithrombins with high heparin affinity. […] The collected fractions are pooled and the salt concentration is decreased either by over night dialysis against 10 mM Tris, or 20 mM phosphate, and 0.1 M NaCl, pH 7.4 at 4° C. or applied on an HiPrep 26/10 desalting column equilibrated with 10 mM Tris, or 20 mM phosphate, and 0.1 M NaCl, pH 7.4. The antithrombin is then concentrated by ion exchange chromatography using a “Resource Q” 1 ml column (GE, Biological) equilibrated with 10 mM Tris, or 20 mM phosphate, and 0.1 M NaCl, pH 7.4 and eluted in the same buffer with a NaCl gradient from […] to 0.5 M or 20 mM to 0.5 M. The antithrombin concentration in each elution fraction is estimated by absorbance at 280 nm with an absorption coefficient ε=0.65 g^−1·l·cm^−1 and the integrity of purified wild type antithrombin or mutated antithrombins is tested by western blotting using the same couple of antibodies as described before, and electrophoresis on 10% acrylamide/bisacrylamide gel in native and denaturing conditions followed by coomassie brilliant blue R-250 staining (FIG. 4). Then, the antithrombin preparation is aliquoted and stored at −80° C. before use for functional assay. The same procedure is used to purify plasma antithrombin (used as internal reference) from human plasma.
For “AT-N135Q-R393H: human antithrombin with substitution at 393 by Histidine and at 135 by Glutamine”, the “elution from heparin affinity column compared with wild type antithrombin” value is recorded as “higher ionic strength than wild type antithrombin”. The entry for B1 is “higher ionic strength than wild type antithrombin”; for B2 it is “higher ionic strength than wild type antithrombin”; for B3 it is “higher ionic strength than wild type antithrombin”. The entry for B4 is “higher ionic strength than wild type antithrombin”.

(Values after US8741844B2, “Use of mutated antithrombins for treating or preventing coagulation disorders” (Universite Paris-Sud XI, priority 2007, dated 2014).)
